Holding throughout (experiment): cell-based or functional assay
Assay [1] has as its target human GLP1 receptor (human) (UniProt P43220).
Assay [2] deals with cynomolgus monkey GLP1 receptor (cynomolgus monkey) (UniProt F8V479).
In assay [3] the target is mouse GLP1 receptor (mouse) (UniProt O35659).
Sequence of mouse GLP1 receptor (mouse) (O35659 22-463): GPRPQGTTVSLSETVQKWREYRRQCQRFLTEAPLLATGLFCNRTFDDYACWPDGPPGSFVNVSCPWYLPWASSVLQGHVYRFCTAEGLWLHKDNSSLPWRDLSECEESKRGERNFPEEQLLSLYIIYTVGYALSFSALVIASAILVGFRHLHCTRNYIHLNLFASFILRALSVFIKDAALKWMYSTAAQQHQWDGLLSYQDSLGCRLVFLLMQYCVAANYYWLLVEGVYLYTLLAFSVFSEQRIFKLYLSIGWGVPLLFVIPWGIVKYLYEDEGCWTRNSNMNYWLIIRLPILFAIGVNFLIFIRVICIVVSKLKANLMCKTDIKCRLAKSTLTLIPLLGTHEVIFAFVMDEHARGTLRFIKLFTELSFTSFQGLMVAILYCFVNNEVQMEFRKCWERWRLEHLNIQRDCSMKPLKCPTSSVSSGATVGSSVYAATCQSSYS

Sequence of cynomolgus monkey GLP1 receptor (cynomolgus monkey) (F8V479 entry or part of it): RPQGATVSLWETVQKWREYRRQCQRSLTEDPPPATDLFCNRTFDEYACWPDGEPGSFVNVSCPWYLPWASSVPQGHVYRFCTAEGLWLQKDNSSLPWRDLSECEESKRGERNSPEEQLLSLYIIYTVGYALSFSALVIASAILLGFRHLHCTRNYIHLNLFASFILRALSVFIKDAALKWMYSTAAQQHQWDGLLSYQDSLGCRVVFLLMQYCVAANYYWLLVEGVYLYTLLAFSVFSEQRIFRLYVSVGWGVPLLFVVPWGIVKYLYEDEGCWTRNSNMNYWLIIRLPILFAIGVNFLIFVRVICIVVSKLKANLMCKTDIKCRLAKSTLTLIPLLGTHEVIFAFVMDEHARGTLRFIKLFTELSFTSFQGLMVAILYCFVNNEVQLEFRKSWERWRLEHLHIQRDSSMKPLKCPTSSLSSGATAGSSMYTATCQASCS
Sequence of Dulaglutide (Fc fusion) (chain): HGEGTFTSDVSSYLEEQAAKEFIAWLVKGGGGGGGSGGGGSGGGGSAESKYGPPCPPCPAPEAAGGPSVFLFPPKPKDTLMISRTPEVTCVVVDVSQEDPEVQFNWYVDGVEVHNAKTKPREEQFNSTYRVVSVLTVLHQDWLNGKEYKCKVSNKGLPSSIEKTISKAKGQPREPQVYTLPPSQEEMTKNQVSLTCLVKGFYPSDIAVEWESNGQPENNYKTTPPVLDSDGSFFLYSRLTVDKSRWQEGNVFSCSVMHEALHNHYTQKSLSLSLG
Sequence of Albiglutide (chain): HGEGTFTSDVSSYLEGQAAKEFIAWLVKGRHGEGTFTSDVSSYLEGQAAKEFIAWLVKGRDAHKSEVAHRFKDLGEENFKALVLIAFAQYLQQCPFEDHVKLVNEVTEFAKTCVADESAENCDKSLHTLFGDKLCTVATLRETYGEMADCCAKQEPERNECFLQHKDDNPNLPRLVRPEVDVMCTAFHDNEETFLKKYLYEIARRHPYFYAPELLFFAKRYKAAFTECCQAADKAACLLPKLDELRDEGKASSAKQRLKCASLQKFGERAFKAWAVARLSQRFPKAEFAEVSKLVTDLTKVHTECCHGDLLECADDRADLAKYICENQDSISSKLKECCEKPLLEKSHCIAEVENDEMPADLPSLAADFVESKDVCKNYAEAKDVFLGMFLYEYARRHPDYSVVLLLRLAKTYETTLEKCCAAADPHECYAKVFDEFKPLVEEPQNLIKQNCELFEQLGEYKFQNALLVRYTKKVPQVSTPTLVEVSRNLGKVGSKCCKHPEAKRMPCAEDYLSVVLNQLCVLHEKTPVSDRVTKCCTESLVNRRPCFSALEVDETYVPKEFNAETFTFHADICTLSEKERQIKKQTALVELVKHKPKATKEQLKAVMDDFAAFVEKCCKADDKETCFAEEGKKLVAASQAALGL
Sequence of human GLP1 receptor (human) (P43220 24-463): as the sequence (F8V479 entry or part of it) above, with N112S, S120F, G202S, V205L, F237L, R241W, V249I counted along it

For Dulaglutide (Fc fusion), the cAMP induction hGLP1R EC50 in assay [1] is 0.038 nM. In assay [2], this substance had a cAMP induction CGLP1R EC50 of 0.045 nM. Also, the cAMP induction mGLP1R EC50 in assay [3] was 0.02 nM.
In assay [3], “GLP1 (from UniProt P01275 98-127) (peptide)” had a cAMP induction mGLP1R EC50 of 0.012 nM.
Take Albiglutide: in assay [1], the cAMP induction hGLP1R EC50 turned out to be 0.981 nM. Besides, in assay [2], the cAMP induction CGLP1R EC50 was determined as 1.76 nM. The substance also returned a cAMP induction mGLP1R EC50 in assay [3] of 1.49 nM.
Substance Liraglutide (peptide) displayed a cAMP induction CGLP1R EC50 in assay [2] of 0.079 nM. The substance further yielded a cAMP induction mGLP1R EC50 in assay [3] of 0.052 nM.

(Values after US20230322888A1.)
